In this assay the target is T1, MuSK at the postsynaptic membrane of mouse neuromuscular junctions (levator auris longus muscle) (mouse, UniProt Q61006 22-868).
T1 construct: whole, on cells; Target in tissue immunostaining; also called mouse NMJs; MuSK at the NMJ
T1 sequence (looked up): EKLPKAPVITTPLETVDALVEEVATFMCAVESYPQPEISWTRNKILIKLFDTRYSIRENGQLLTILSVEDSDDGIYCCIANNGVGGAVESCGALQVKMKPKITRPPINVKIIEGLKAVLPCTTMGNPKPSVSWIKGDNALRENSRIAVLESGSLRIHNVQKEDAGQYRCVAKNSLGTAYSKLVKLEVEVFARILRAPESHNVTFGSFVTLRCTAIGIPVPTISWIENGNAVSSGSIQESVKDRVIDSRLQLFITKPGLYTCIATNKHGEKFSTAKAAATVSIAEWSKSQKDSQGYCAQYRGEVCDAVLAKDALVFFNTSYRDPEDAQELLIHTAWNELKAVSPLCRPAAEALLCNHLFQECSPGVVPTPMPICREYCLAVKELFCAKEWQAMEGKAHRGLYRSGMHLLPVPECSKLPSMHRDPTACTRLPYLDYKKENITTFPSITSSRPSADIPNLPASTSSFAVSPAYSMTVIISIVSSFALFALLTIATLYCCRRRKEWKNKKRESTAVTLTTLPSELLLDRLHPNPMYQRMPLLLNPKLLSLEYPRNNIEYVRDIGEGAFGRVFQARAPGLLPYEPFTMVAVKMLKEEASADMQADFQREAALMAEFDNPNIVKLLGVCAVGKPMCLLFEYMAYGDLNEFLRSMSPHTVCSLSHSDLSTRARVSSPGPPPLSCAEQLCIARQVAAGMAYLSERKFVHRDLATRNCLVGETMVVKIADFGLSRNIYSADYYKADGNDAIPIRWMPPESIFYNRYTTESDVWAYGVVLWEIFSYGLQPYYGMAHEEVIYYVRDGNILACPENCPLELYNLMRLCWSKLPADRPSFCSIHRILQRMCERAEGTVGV
Kind of assay: immunostaining of whole-mount mouse levator auris longus muscle. The method, then: FIG. 6—anti-MuSK/Anti-HIV-b12 exchanged heterospecific IgG4 antibodies were generated using methods detailed in Labrijn, 2014, Nature Protocols and Genmab, Labrijn, 2013, PNAS, which were adjusted to IgG4. These antibodies were tested for MuSK binding in mouse neuromuscular junction (NMJ) in ex vivo levator auris longus muscle. Equivalent anti-MuSK homospecific antibodies were also tested in parallel. The data confirms that both heterospecific MuSK IgG4 antibodies (13-3B5/HIV IgG4 and 11-3F6/HIV IgG4) and homospecific MuSK IgG4 antibodies (13-3B5 IgG4 and 11-3F6 IgG4) bind to MuSK at the NMJ.
To determine the binding characteristics of the recombinant and medium produced antibodies we performed an epitope mapping ELISA as described previously (Huijbers et al., 2016). Truncated versions of the MuSK proteins were immobilized on maxisorp plates and exposed to either antibodies from the single cell cultures 1:10 or to recombinant antibodies. Recombinant antibodies were also used to immunostain mouse levator auris longus muscle overnight at 4° C. at 1:100. AChRs in synaptic regions were labelled with AlexaFluor488 conjugated alpha-bungarotoxin (Life technologies) and bound recombinant antibodies were detected with AlexaFluor594 conjugated goat anti-human IgG (Life technologies). Muscles were imaged on a Leica SP8 confocal laser-scanning microscope and analyzed using Las X software.

Results on two molecules are retold here after US20240043562A1 (ACADEMISCH ZIEKENHUIS LEIDEN H O D N LUMC, published 2024).

B1: recombinant 11-3F6 IgG4 (antibody, V domains shown)
VH: EVQLVESGGGLVKPGGSLRLSCAASGFTFSSYTMDWVRQAPGKGLEWVSSIGSNGDYIYYADSVRGRFTISRDNAKNSLYLQMNSLRPDDTADYYCARGQLAVAGTHFDYWGRGSLVTVSS
VL: DIQMTQSPSSLSASVGDRVTISCRASQKVNKYVNWYQQTPGKAPRLLIYAASTLQSGVPSRFSGSGSGANFTLTISGLQPEDFAIYFCQQSYSPLCTFGQGTKLEIK
notes: Variable regions cloned in an IgG4 backbone and expressed in HEK293-F cells; Bivalent and monospecific; also called homospecific 11-3F6 IgG4
In the case of B1, the binding result is on record as “binds”.

B2: recombinant 13-3B5 IgG4 (antibody, V domains shown)
VH: QVQLVQSGAVVAKPGASVQVSCKTSGYTFTGQYLHWVRQAPGQGLEWIGWINPSSGVTKFAEKFEGRATMTRDTSITTAYIDLRSLRSDDTATYYCATLSLGVYYVGMVAWGQGTLVTVSS
VL: SYELTQPPSVSVSPGQTATITCSGDGLAQQHVYWFQQRPGQAPLLIIYKDIERPSGIPERFSGSSSGTTAMLTISGVQAEDEADYYCQSGDRTATSVLFGGGTKMTVL
notes: Variable regions cloned in an IgG4 backbone and expressed in HEK293-F cells; Bivalent and monospecific; also called homospecific 13-3B5 IgG4; 13-365
Regarding B2, the binding result is reported as “binds”.
